± gives the uncertainty stated by the source.
B1: POU domain, class 3, transcription factor 2, residues 356 to 411; numbered along this chain, P20265 (parent)
chain: KKRTSIEVSVKGALESHFLKCPKPSAQEITSLADSLQLEKEVVRVWFCNRRQKEKR

Variants of: B1
Test: abundance fitness (aPCA) (normalised: wild type 0, dead -1); higher = more abundant; growth selection in yeast, the domain comes from the species named
Conditions: Homo sapiens

Variant	abundance fitness
D34P	-0.719 ± 0.1
D34M	0.01 ± 0.13
D34K	0.191 ± 0.14
D34T	0.055 ± 0.099
D34N	0.148 ± 0.12
D34W	0.153 ± 0.083
D34G	-0.1 ± 0.08
D34V	-0.04 ± 0.081
D34L	0.098 ± 0.077
D34A	0.082 ± 0.092
D34F	0.031 ± 0.16
D34H	0.212 ± 0.15
D34Y	0.184 ± 0.2
D34R	0.244 ± 0.073
D34E	-0.023 ± 0.12
D34S	-0.041 ± 0.08
D34Q	0.105 ± 0.11
E41R	-0.337 ± 0.078
E41Q	-0.26 ± 0.14
E41F	-0.723 ± 0.22
E41W	-0.494 ± 0.11
E41V	-0.596 ± 0.1
E41G	-0.408 ± 0.085
E41K	-0.446 ± 0.17

Variant	abundance fitness
E41N	-0.069 ± 0.18
E41D	-0.114 ± 0.14
E41P	-0.697 ± 0.14
E41M	-0.791 ± 0.2
E41C	-0.558 ± 0.12
E41A	-0.238 ± 0.12
E41L	-0.881 ± 0.1
E41H	-0.168 ± 0.19
E41T	-0.303 ± 0.13
E41S	-0.256 ± 0.086
E41Y	-0.489 ± 0.18
A26W	-0.11 ± 0.12
A26N	-0.097 ± 0.17
A26K	-0.162 ± 0.15
A26C	-0.244 ± 0.13
A26R	-0.13 ± 0.076
A26T	-0.033 ± 0.12
A26E	-0.064 ± 0.093
A26D	0.151 ± 0.13
A26F	-0.312 ± 0.18
A26Y	-0.235 ± 0.18
A26V	-0.049 ± 0.068
A26Q	0.01 ± 0.14
A26G	-0.141 ± 0.078

Variant	abundance fitness
A26P	-0.224 ± 0.13
A26L	-0.179 ± 0.089
A26I	-0.05 ± 0.14
A26M	0.03 ± 0.13
A26H	-0.059 ± 0.16
A26S	-0.134 ± 0.078
K40A	-0.017 ± 0.097
K40E	0.096 ± 0.12
K40D	-0.344 ± 0.16
K40S	-0.036 ± 0.085
K40V	0.007 ± 0.11
K40P	-0.027 ± 0.12
K40Q	0.078 ± 0.12
K40N	0.021 ± 0.19
K40L	-0.147 ± 0.083
K40W	-0.178 ± 0.1
K40H	0.132 ± 0.21
K40G	-0.085 ± 0.078
K40M	-0.013 ± 0.17
K40F	-0.004 ± 0.13
K40R	0.017 ± 0.066
K40C	-0.153 ± 0.095
Q27K	-0.014 ± 0.15
Q27N	0.028 ± 0.22

Variant	abundance fitness
Q27T	0.02 ± 0.11
Q27P	-0.21 ± 0.16
Q27A	-0.126 ± 0.085
Q27S	-0.079 ± 0.087
Q27F	-0.327 ± 0.12
Q27G	-0.131 ± 0.061
Q27I	-0.14 ± 0.14
Q27V	-0.061 ± 0.082
Q27C	-0.081 ± 0.1
Q27D	-0.08 ± 0.13
Q27W	-0.292 ± 0.089
Q27Y	-0.268 ± 0.14
Q27E	-0.155 ± 0.094
Q27M	-0.35 ± 0.14
Q27H	0.092 ± 0.15
Q27R	-0.007 ± 0.068
L32M	-0.08 ± 0.15
L32H	-0.857 ± 0.19
L32Y	-0.831 ± 0.21
L32K	-0.927 ± 0.33
L32S	-0.875 ± 0.12
L32E	-0.916 ± 0.21
L32W	-0.915 ± 0.15
L32T	-0.943 ± 0.22

Variant	abundance fitness
L32P	-0.944 ± 0.28
L32N	-1.07 ± 0.3
L32G	-0.834 ± 0.11
L32A	-0.994 ± 0.18
L32V	-0.303 ± 0.096
L32D	-1.03 ± 0.25
L32F	-0.341 ± 0.16
L32I	-0.161 ± 0.16
L32Q	-0.789 ± 0.2
L32R	-0.911 ± 0.11
S25L	-0.423 ± 0.093
S25Y	-0.798 ± 0.27
S25C	-0.231 ± 0.14
S25K	-0.318 ± 0.14
S25I	-0.793 ± 0.23
S25A	-0.322 ± 0.1
S25M	-0.446 ± 0.19
S25N	-0.167 ± 0.21
S25H	-0.467 ± 0.17
S25F	-0.902 ± 0.3
S25G	-0.194 ± 0.087
S25V	-0.725 ± 0.094
S25P	-0.579 ± 0.14
S25T	0.038 ± 0.12

Variant	abundance fitness
S25R	-0.47 ± 0.1
V42Y	0.05 ± 0.2
V42I	-0.204 ± 0.11
V42M	-0.299 ± 0.11
V42T	-0.02 ± 0.12
V42D	0.051 ± 0.19
V42E	0.01 ± 0.096
V42W	-0.147 ± 0.094
V42P	-0.869 ± 0.23
V42R	-0.363 ± 0.079
V42Q	-0.136 ± 0.16
V42G	-0.453 ± 0.08
V42A	-0.089 ± 0.083
V42C	-0.01 ± 0.2
V42S	-0.179 ± 0.11
V42N	-0.309 ± 0.19
V42F	-0.042 ± 0.15
V42K	-0.116 ± 0.14
V42H	0.081 ± 0.22
V45D	0.07 ± 0.078
V45F	-0.175 ± 0.094
V45C	-0.294 ± 0.12
L36E	-0.892 ± 0.12
L36A	-0.929 ± 0.1

Variant	abundance fitness
L36M	-0.564 ± 0.14
L36H	-0.527 ± 0.15
L36G	-0.866 ± 0.085
L36P	-0.608 ± 0.21
L36R	-0.938 ± 0.11
L36C	-0.428 ± 0.17
L36N	-0.543 ± 0.14
L36I	-0.7 ± 0.16
L36K	-0.868 ± 0.16
L36D	-0.842 ± 0.16
L36V	-0.53 ± 0.072
L36Y	-0.151 ± 0.14
L36W	-0.545 ± 0.13
L36T	-0.7 ± 0.11
L36Q	-1.25 ± 0.27
L36F	-0.291 ± 0.13
P24M	-0.628 ± 0.14
P24T	-0.986 ± 0.31
P24W	-0.839 ± 0.16
P24V	-0.821 ± 0.096
P24S	-0.998 ± 0.18
P24L	-0.936 ± 0.12
P24Q	-0.86 ± 0.37
E39Y	-0.653 ± 0.16

Variant	abundance fitness
E39N	-0.217 ± 0.13
E39C	-0.133 ± 0.093
E39L	-0.847 ± 0.11
E39H	0.036 ± 0.12
E39G	-0.324 ± 0.088
E39R	-0.404 ± 0.083
E39P	-0.244 ± 0.13
E39A	-0.224 ± 0.11
E39K	-0.121 ± 0.13
E39M	-0.941 ± 0.16
E39F	-1.01 ± 0.26
E39S	-0.039 ± 0.076
E39I	-0.982 ± 0.37
E39W	-0.943 ± 0.17
E39T	-0.159 ± 0.12
Q37P	-0.916 ± 0.15
Q37F	-0.183 ± 0.12
Q37S	-0.032 ± 0.073
Q37A	-0.054 ± 0.071
Q37M	-0.151 ± 0.1
Q37C	0.087 ± 0.14
Q37V	-0.394 ± 0.073
Q37L	-0.245 ± 0.07
Q37N	-0.077 ± 0.18

Variant	abundance fitness
Q37R	-0.138 ± 0.074
Q37K	-0.064 ± 0.1
Q37D	-0.192 ± 0.14
Q37Y	-0.353 ± 0.14
Q37T	-0.316 ± 0.11
Q37W	-0.394 ± 0.12
Q37I	-0.63 ± 0.13
S35I	-0.062 ± 0.15
S35Y	-0.115 ± 0.13
S35R	0.051 ± 0.083
S35E	0.03 ± 0.1
S35C	-0.133 ± 0.13
S35H	-0.026 ± 0.18
S35W	-0.113 ± 0.11
S35T	0.026 ± 0.097
S35V	-0.119 ± 0.11
S35P	-0.961 ± 0.14
S35M	-0.095 ± 0.12
S35F	-0.22 ± 0.11
S35N	-0.125 ± 0.14
S35A	-0.086 ± 0.11
S35Q	0.008 ± 0.13
S35L	-0.065 ± 0.088
S35K	0.136 ± 0.15

Variant	abundance fitness
S35D	0.091 ± 0.19
S35G	-0.033 ± 0.08
T30Y	-0.285 ± 0.11
T30V	-0.016 ± 0.079
T30K	0.008 ± 0.14
T30L	-0.091 ± 0.083
T30E	0.022 ± 0.11
T30H	-0.205 ± 0.15
T30Q	0.078 ± 0.14
T30R	-0.151 ± 0.069
T30C	-0.131 ± 0.098
T30N	0.212 ± 0.13
T30I	-0.237 ± 0.11
T30W	-0.324 ± 0.082
T30S	0.036 ± 0.077
T30A	-0.041 ± 0.11
T30D	0.05 ± 0.15
T30F	-0.396 ± 0.15
V43M	-0.944 ± 0.16
V43I	-0.197 ± 0.12
V43Q	-0.877 ± 0.19
V43P	-0.891 ± 0.17
V43N	-0.889 ± 0.34
V43A	-0.615 ± 0.089

Variant	abundance fitness
V43D	-0.958 ± 0.19
V43K	-0.909 ± 0.3
V43H	-0.938 ± 0.2
V43S	-0.985 ± 0.14
V43Y	-0.955 ± 0.2
V43G	-0.906 ± 0.12
V43L	-0.361 ± 0.068
V43C	-0.547 ± 0.15
V43W	-0.793 ± 0.16
V43E	-1.01 ± 0.17
V43T	-0.841 ± 0.12
V43R	-0.95 ± 0.11
E28P	-0.802 ± 0.18
E28D	-0.281 ± 0.21
E28S	-0.455 ± 0.1
E28L	-0.369 ± 0.1
E28R	-0.466 ± 0.093
E28T	-0.088 ± 0.12
E28F	-0.511 ± 0.12
E28W	-0.505 ± 0.14
E28K	-0.413 ± 0.17
E28Q	-0.402 ± 0.13
E28C	-0.299 ± 0.12
E28N	-0.551 ± 0.22

Variant	abundance fitness
E28I	-0.52 ± 0.14
E28M	-0.437 ± 0.17
E28V	-0.195 ± 0.086
E28A	-0.257 ± 0.088
A33I	-1.03 ± 0.42
A33M	-0.759 ± 0.26
A33E	-0.55 ± 0.26
A33R	-0.936 ± 0.1
A33Y	-0.963 ± 0.2
A33F	-0.599 ± 0.12
A33V	-0.71 ± 0.13
A33K	-0.631 ± 0.17
A33N	-0.963 ± 0.33
A33P	-0.794 ± 0.19
A33W	-0.735 ± 0.17
A33Q	-1.12 ± 0.33
A33H	-0.789 ± 0.25
A33G	-0.806 ± 0.12
A33C	-0.428 ± 0.099
A33T	-0.83 ± 0.17
A33S	-0.236 ± 0.087
I29A	-1.03 ± 0.23
I29W	-0.855 ± 0.16
I29Q	-0.782 ± 0.19

Variant	abundance fitness
I29T	-0.593 ± 0.17
I29F	-0.786 ± 0.2
I29R	-0.93 ± 0.099
I29C	-0.633 ± 0.14
I29H	-0.817 ± 0.26
I29N	-1.05 ± 0.25
I29E	-0.763 ± 0.31
I29L	-0.095 ± 0.089
I29Y	-0.741 ± 0.17
I29S	-0.884 ± 0.11
I29M	-0.093 ± 0.14
I29K	-0.994 ± 0.36
I29V	-0.158 ± 0.11
R44E	0.027 ± 0.12
R44W	-0.412 ± 0.14
R44H	-0.127 ± 0.11
R44S	-0.09 ± 0.07
R44N	-0.152 ± 0.11
R44Q	-0.057 ± 0.1
R44F	-0.481 ± 0.089
R44V	-0.38 ± 0.076
R44G	-0.188 ± 0.1
R44I	-0.272 ± 0.11
R44M	-0.214 ± 0.11

Variant	abundance fitness
R44Y	-0.416 ± 0.12
R44T	-0.08 ± 0.11
R44C	-0.495 ± 0.1
R44A	-0.027 ± 0.083
R44P	-0.814 ± 0.12
R44D	0.008 ± 0.11
R44L	-0.407 ± 0.068
L38T	-0.26 ± 0.096
L38Y	-0.827 ± 0.17
L38N	-0.964 ± 0.23
L38W	-0.804 ± 0.1
L38P	-0.969 ± 0.17
L38G	-0.871 ± 0.076
L38D	-0.983 ± 0.19
L38Q	-0.519 ± 0.12
L38S	-0.924 ± 0.13
L38A	-0.713 ± 0.11
L38F	-0.788 ± 0.24
L38I	-0.191 ± 0.14
L38E	-0.696 ± 0.14
L38V	-0.119 ± 0.074
L38K	-0.927 ± 0.17
